How the values were obtained:
[1] = target: T1, recombinant human NEP (Homo sapiens, UniProt P08473); experiment: Digest of CNP variants by Neutral Endopeptidase in vitro; assay type: in vitro ADME; settings: 100 μg CNP equivalents/mL, pH 7.4, 37° C., up to 4 days, normalized to mean CNP-34 or CNP-38 half life
T1 construct: purchased Enzo Life Sciences GmbH, Lörrach, Germany
Source text: Samples were taken at different time intervals. […] The resulting reaction products were assigned using HPLC-MS.

[2] = Evaluation of cardiovascular effects in the conscious telemetered mouse (subcutaneous administration); assay type: in vivo, Male Crl: CD1(1CR) mice; settings: 800 μg CNP-38 (eq)/kg sc
Procedure: Male Crl: CD1(1CR) mice (age range 8-13 weeks and body weight range 27.3-35.6 g at start of dosing) were surgically implanted with a TA11PA-C10 telemetry transmitter (Data Sciences International (DSI)) in the carotid artery. The body of the transmitter was placed subcutaneously in the lateral flank of the mouse. The mice were dosed subcutaneously in a latin square crossover design with at least 72 hours between dosing occasions. […] At least four mice were included at each dose level. Blood pressure (systolic (SAP), diastolic (DAP) and mean (MAP) and heart rate (HR, derived from blood pressure), were recorded using a digital data capture system linked with a DSITM Ponemah data acquisition and analysis system. The capture system allowed recording of the cardiovascular parameters whilst the mice were in individual cages. On the day of each test session the animals were weighed and a predose recording was performed for at least 60 min prior to dosing. Each mouse was returned to the home cage and the cardiovascular parameters were recorded for approximately 48 hours postdose. Blood pressure and HR were reported at the following time points: −30, −20, −10, 5, 15 and 30 min postdose and 1, 2, 6, 12, 18, 24, 30, 36, 42 and 48 hours postdose. Each time point was presented as the average value of five minute's recording prior to the time point. […]

[3] = Pharmacokinetic profile of conjugate 11i after subcutaneous single-dose administration to cynomolgus monkeys; assay type: in vivo; settings: single s.c. 40 μg CNP-38 eq/kg
Procedure: As internal standard deuterated CNP-38 conjugate was used.
After 3 hours incubation at 37° C. […] 10 μL were injected into the UHPLC-MS system.

T1 sequence (P08473 whole entry): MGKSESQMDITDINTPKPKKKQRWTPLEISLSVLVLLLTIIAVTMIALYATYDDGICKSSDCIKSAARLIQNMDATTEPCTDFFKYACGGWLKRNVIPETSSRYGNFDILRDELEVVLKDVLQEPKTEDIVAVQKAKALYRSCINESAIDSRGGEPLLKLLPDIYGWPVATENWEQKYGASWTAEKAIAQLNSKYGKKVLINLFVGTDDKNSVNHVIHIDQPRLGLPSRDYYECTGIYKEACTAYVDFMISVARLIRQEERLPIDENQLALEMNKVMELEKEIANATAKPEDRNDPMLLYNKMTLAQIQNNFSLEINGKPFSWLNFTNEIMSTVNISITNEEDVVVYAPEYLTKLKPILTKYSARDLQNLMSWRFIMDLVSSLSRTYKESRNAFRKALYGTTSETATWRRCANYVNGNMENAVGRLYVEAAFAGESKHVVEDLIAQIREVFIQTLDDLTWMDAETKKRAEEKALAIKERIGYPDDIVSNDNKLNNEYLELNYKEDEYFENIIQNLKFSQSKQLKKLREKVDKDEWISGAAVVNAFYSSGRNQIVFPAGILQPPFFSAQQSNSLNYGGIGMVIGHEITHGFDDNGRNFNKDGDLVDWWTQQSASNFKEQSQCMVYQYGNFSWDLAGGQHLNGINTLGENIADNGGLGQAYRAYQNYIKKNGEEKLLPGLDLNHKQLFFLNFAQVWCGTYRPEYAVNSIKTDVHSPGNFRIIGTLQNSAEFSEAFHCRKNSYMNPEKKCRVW

Compound	half life norm. [1]	also measured
Permanent Lys26 CNP-38 PEG4×10 kDa Conjugate [Conjugate 12g]	Almost no proteolysis	–
CC[C@H](C)[C@@H]1NC(=O)[C@H](CCCNC(=N)N)NC(=O)[C@H](CC(=O)O)NC(=O)[C@H](CC(C)C)NC(=O)[C@H](CCCCN)NC(=O)[C@H](CC(C)C)NC(=O)CNC(=O)[C@H](Cc2ccccc2)NC(=O)[C@@H](NC(=O)CNC(=O)[C@H](CCCCN)NC(=O)[C@H](CO)NC(=O)[C@H](CC(C)C)NC(=O)CNC(=O)[C@H](CCCCN)NC(=O)[C@H](CCCCN)NC(=O)[C@H](CC(N)=O)NC(=O)[C@H](C)NC(=O)CNC(=O)[C@H](CCCCN)NC(=O)[C@H](Cc2ccc(O)cc2)NC(=O)[C@H](CCCCN)NC(=O)[C@H](CCCNC(=N)N)NC(=O)[C@H](C)NC(=O)[C@H](CC(N)=O)NC(=O)[C@@H]2CCCN2C(=O)[C@H](Cc2c[nH]cn2)NC(=O)[C@H](CCC(=O)O)NC(=O)[C@H](CCC(N)=O)NC(=O)[C@@H](N)CC(C)C)CSSC[C@@H](C(=O)O)NC(=O)CNC(=O)[C@H](CC(C)C)NC(=O)CNC(=O)[C@H](CO)NC(=O)[C@H](CCSC)NC(=O)[C@H](CO)NC(=O)CNC1=O [CNP-38, reference compound]	–	effect on HR [2]: not impacted; effect on MAP / blood pressure ([2]; 5, 15 and 30 min post dose): significant decrease in MAP
Permanent N-Terminal CNP-38 PEG 5 kDa Conjugate [Conjugate 15e]	Almost no proteolysis	–
Reversible Lys26 CNP-38 PEG4×10 kDa Conjugate [Conjugate 11i]	–	tolerability [3]: well tolerated
Permanent Lys26 CNP-38 PEG 5 kDa Conjugate [Conjugate 19e]	62.76 h	–
Permanent N-Terminal CNP-34 PEG 5 kDa Conjugate [Conjugate 14e]	Almost no proteolysis	–
Permanent Lys22 CNP-34 PEG 5 kDa Conjugate [Conjugate 18e]	38.87 h	–
Permanent Lys16 CNP-34 PEG 5 kDa Conjugate [Conjugate 17e]	54.23 h	–
